Results reported in patent publication US20040235732A1, “Method for modulating angiogenesis using prokineticin receptor antagonists” (published 2004).
One block for each binder: values may come before it.

Tests used:
Assay in all cases: cell-based or functional assay
[1] = molecular target: T1, human prokineticin receptor 1 (PKR1) (human)
T1 chain: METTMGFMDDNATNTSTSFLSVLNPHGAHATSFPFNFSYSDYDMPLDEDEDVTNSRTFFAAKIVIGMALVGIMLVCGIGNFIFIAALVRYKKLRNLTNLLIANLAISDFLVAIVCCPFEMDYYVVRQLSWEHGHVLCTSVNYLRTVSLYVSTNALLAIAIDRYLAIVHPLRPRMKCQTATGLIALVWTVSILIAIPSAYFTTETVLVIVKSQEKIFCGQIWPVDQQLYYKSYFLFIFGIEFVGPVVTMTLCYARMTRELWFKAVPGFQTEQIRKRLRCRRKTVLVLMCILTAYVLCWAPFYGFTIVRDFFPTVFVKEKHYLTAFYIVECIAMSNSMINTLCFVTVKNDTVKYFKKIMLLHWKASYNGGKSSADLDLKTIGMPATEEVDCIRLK

[2] = molecular target: human prokineticin receptor 2 (PKR2) (human)
human prokineticin receptor 2 (PKR2) (human), sequence (chain, as listed by the source): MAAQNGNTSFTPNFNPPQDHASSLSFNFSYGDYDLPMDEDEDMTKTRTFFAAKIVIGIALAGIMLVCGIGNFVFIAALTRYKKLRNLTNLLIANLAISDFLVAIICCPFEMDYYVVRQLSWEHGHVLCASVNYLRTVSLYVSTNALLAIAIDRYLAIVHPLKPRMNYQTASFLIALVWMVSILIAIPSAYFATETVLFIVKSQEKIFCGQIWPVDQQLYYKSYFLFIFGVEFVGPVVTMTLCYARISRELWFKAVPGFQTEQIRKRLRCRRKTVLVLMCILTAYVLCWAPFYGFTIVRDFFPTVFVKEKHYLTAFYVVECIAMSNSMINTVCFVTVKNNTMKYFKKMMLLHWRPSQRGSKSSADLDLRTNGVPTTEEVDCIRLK

[3] = molecular target: T1, human prokineticin receptor 1 (PKR1)
[4] = molecular target: human prokineticin receptor 2 (PKR2) (human); remark: listed apart in the source

Antagonistic Activity of PK mutants (Calcium Mobilization Assay), nM; ligand PK1 [1]: 9 nM
Antagonistic Activity of PK mutants (Calcium Mobilization Assay), nM; ligand PK2 [1]: 90 nM
Antagonistic Activity of PK mutants (Calcium Mobilization Assay), nM; ligand PK1 [2]: 15 nM
Antagonistic Activity of PK mutants (Calcium Mobilization Assay), nM; ligand PK2 [2]: 30 nM
dissociation constant (Kb), Schild analysis of calcium mobilization [3]: 261 nM
dissociation constant (Kb), Schild analysis of calcium mobilization [4]: 48.9 nM
B1: Met PK1 (ligand)
chain: MAVITGACERDVQCGAGTCCAISLWLRGLRMCTPLGREGEECHPGSHKVPFFRKRKHHTCPCLPNLLCSRFPDGRYRCSMDLKNINF

Antagonistic Activity of PK mutants (Calcium Mobilization Assay), nM; ligand PK1 [1]: 6 nM
Antagonistic Activity of PK mutants (Calcium Mobilization Assay), nM; ligand PK2 [1]: 110 nM
Antagonistic Activity of PK mutants (Calcium Mobilization Assay), nM; ligand PK1 [2]: 16 nM
Antagonistic Activity of PK mutants (Calcium Mobilization Assay), nM; ligand PK2 [2]: 29 nM
dissociation constant (Kb), Schild analysis of calcium mobilization [3]: 116 nM
dissociation constant (Kb), Schild analysis of calcium mobilization [4]: 37.8 nM
B2: MV PK1 (ligand)
chain: MVITGACERDVQCGAGTCCAISLWLRGLRMCTPLGREGEECHPGSHKVPFFRKRKHHTCPCLPNLLCSRFPDGRYRCSMDLKNINF
